Source: article PMC3086013 (Biochemistry, 2010)

Biological target: the molecule itself
Test: velocity sedimentation on H2O- and D2O-sucrose gradients + SEC

Protein	stoichiometry N [subunits/complex]
seipin-myc13 (yeast seipin fused to 13 tandem copies of the myc epitope) (natural protein, S. cerevisiae, UniProt Q06058 1-285, looked up) MKINVSRPLQFLQWSSYIVVAFLIQLLIILPLSILIYHDFYLRLLPADSSNVVPLNTFNILNGVQFGTKFFQSIKSIPVGTDLPQTIDNGLSQLIPMRDNMEYKLDLNLQLYCQSKTDHLNLDNLLIDVYRGPGPLLGAPGGSNSKDEKIFHTSRPIVCLALTDSMSPQEIEQLGPSRLDVYDEEWLNTIRIEDKISLESSYETISVFLKTEIAQRNLIIHPESGIKFRMNFEQGLRNLMLRKRFLSYIIGISIFHCIICVLFFITGCTAFIFVRKGQEKSKKHS	9.4
seipin-mCherry (yeast seipin tagged at its carboxy terminus with mCherry) (natural protein, S. cerevisiae, UniProt Q06058 1-285, looked up) MKINVSRPLQFLQWSSYIVVAFLIQLLIILPLSILIYHDFYLRLLPADSSNVVPLNTFNILNGVQFGTKFFQSIKSIPVGTDLPQTIDNGLSQLIPMRDNMEYKLDLNLQLYCQSKTDHLNLDNLLIDVYRGPGPLLGAPGGSNSKDEKIFHTSRPIVCLALTDSMSPQEIEQLGPSRLDVYDEEWLNTIRIEDKISLESSYETISVFLKTEIAQRNLIIHPESGIKFRMNFEQGLRNLMLRKRFLSYIIGISIFHCIICVLFFITGCTAFIFVRKGQEKSKKHS	8.7
